In the experiment the target is T1, PTH receptor (Homo sapiens, UniProt Q03431).
T1 construct: expressed in transfected cells; host or cells: HEK-293
T1 sequence (Q03431 27-593): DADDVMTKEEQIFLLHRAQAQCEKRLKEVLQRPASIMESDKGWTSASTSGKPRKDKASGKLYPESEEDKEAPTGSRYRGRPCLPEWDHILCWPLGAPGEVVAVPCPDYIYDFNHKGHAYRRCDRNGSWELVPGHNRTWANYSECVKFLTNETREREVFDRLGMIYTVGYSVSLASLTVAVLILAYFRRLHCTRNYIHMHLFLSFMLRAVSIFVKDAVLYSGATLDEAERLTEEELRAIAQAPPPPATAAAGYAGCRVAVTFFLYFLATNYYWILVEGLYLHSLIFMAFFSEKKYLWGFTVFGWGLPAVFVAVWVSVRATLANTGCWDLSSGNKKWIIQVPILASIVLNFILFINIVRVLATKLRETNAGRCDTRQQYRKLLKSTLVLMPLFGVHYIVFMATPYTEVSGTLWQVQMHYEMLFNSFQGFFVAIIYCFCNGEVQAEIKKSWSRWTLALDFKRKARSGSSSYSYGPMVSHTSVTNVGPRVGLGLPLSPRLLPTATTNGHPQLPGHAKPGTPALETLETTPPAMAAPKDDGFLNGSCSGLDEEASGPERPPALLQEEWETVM
As to the kind of experiment: Luciferase reporter assay in hPTH receptor-expressing HEK-293 cells. Format: cell-based. The conditions noted are these: clones of PTH receptor expressing HEK-293 cells bearing pMCL3zeo luciferase reporter gene; clones selected for assay development. An excerpt: This cell line is obtained as described by Pines et al., Endocrinology, 1994, 135(4), 1713-1716, incorporated herein by reference.
The firefly luciferase reporter gene bearing the cAMP responsive elements is amplified by PCR from the pDMC16LUC vector using the method of Spengler et al., Nature, 1993, 365: 170-175, incorporated herein by reference. The PCR product containing the MMTV promoter, sixteen cAMP responsive elements and the luciferase gene is inserted into the zeocin resistant vector (pUTSV1 from InVitrogen). The final vector, termed pMCL3zeo, is then introduced into PTH receptor expressing HEK-293 cells using the lipofectamine method (reagents and method obtained from Gibco/BRL). Cells incorporating the luciferase reporter gene are selected by including zeocin in the culture medium. By limited dilution, different cell clones are isolated and expanded. These clones are tested for their responsiveness to PTH in terms of luciferase expression.
hPTH receptor-expressing HEK-293 cells bearing the luciferase reporter gene are cultured to 80-90% confluency. […] The luciferase activity in the lysates is measured by the addition of the luciferin substrate (Promega assay kit) to effect light production. The output of light is measured in a Wallac Trilux microbeta plate reader.
(In general: Reporter assays use an easily measured gene product as a stand-in for the process of interest.)

On to parathyroid hormone [PTH], for which the luciferase induction is reported as 5-6 fold.
